Measurements taken from publication PMC5429572, “Intrabodies against the Polysialyltransferases ST8SiaII and ST8SiaIV inhibit Polysialylation of NCAM in rhabdomyosarcoma tumor cells” (BMC Biotechnology, 2017).

Tests used:
[1] = molecular target: T1, Flag-HA-tagged ST8SiaIV expressed in HEK293 cells (Cricetulus griseus (assumed), UniProt Q64690, N-glycosylated (several glycoforms, fully glycosylated about 55 kDa)); experiment: co-IP; HEK293 cells co-transfected with Flag-HA-tagged polyST and myc-tagged intrabody; lysis in 50 mM Tris-HCl pH 8, 1 mM MgCl2, 1% NP-40; precipitated with anti-myc antibody and Protein G PLUS Agarose; blot with anti-FLAG M5; settings: partners not purified
T1 construct: polysialyltransferase ST8SiaIV; The empty vector of the control is pcDNA3-FLAG-HA; The CHO line of the functional rows carries Flag-HA-tagged hamster ST8SiaIV; also called ST8SiaVI; polyST; source: HEK293, transiently transfected, in lysate

[2] = molecular target: T2, Flag-HA-tagged ST8SiaII expressed in HEK293 cells (Mus musculus (assumed), UniProt O35696, N-glycosylated (several glycoforms, fully glycosylated about 60 kDa)); experiment: as above; settings: partners not purified
T2 construct: polysialyltransferase ST8SiaII; The empty vector of the control is pcDNA3-FLAG-HA; The CHO line of the functional rows carries N-terminally Flag-HA-tagged murine ST8SiaII; also called polyST; source: HEK293, transiently transfected, in lysate
T2 sequence (O35696 whole entry): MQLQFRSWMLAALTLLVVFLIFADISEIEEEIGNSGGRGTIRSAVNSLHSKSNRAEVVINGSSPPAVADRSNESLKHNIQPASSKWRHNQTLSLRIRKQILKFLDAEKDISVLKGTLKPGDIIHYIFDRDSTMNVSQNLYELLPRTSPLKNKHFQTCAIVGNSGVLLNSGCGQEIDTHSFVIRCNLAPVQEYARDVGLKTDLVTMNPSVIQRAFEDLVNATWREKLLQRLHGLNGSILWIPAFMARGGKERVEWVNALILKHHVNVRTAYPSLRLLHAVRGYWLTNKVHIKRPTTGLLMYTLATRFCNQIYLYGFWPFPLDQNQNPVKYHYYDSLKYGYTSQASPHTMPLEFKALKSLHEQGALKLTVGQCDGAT

T1 sequence (Q64690 whole entry): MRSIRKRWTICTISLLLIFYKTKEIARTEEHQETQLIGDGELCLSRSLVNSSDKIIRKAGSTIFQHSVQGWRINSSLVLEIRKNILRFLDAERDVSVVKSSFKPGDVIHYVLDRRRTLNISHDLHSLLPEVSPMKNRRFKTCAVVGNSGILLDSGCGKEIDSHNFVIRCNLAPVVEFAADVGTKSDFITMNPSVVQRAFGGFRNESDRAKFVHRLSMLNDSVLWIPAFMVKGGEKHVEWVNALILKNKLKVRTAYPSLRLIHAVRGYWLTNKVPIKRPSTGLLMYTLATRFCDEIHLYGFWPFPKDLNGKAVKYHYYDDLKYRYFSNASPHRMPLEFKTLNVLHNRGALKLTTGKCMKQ

Binder	binding result [1]	binding result [2]
αST8SiaIV-IB (ER intrabody against ST8SiaIV, scFv from mAb 3175) (scFv, V domains shown, synthetic linker, printed as (Gly4 Ser)3; Encoded with an N-terminal ER signal peptide from the vector pCMV/myc/ER; the myc tag is followed by the ER retention signal; also called anti-ST8SiaIV-IB; anti-ST8SiaIV intrabody; source: HEK293, transiently transfected (pCMV/myc/ER), in lysate; not shown: myc, C-terminal, kept) VH: EVQLQQSGAELVRSGASVKLSCTTSGFNIKDYYMHWVKQRPEQGLEWIGWIDPENGDTEYAPKFQGKATMTADTSSNTAYLQLSSLTSEDTAVYYCNYRFLAMEYWGQGTSVTVSS VL: NIMMTQSPSSLAVSAGEKVTMSCKSSQSVLYTSNQKNYLAWYQQKPGQSPKLLIYWASTRESGVPDRFTGSGSGTDFTLTISSVQAEDLAVYYCHQYLSSYTFGGGTKLEIK	binds	–
αST8SiaII-IB (ER intrabody against ST8SiaII, scFv from mAb 3167) (scFv, V domains shown, synthetic linker, printed as (Gly4 Ser)3; Encoded with an N-terminal ER signal peptide from the vector pCMV/myc/ER; the myc tag is followed by the ER retention signal; also called anti-ST8SiaII-IB; anti-ST8SiaII intrabody; source: HEK293, transiently transfected (pCMV/myc/ER), in lysate; not shown: myc, C-terminal, kept) VH: QVQLQQPGAELVKAGASVKLSCKASGYTFTNYWMHWVKQRPGQGLEWIGEIDPSESYTNYNQKFKGKATLTVDKSASTAYMQLSSLTSEDSAVYYCTRGDYWGQGTTLTVSS VL: DVVVTQTPLSLPVSFGDQVSISCRSSQSLANSYGNTYLSWYLHKPGQSPQLLIYGISNRFSGVPDRFSGSGSGTDFTLKISTIKPEDLGIYYCLQGAHQPWTFGGGTKLEIK	–	binds
